The values that follow are results of earlier work, collected in article PMC3826259.

One may read the Kd as the concentration at which binding is half-saturated.

Series [1] has as its target HIV-1 protease mature PR (Human immunodeficiency virus 1) (UniProt O93215).
Series [2] concerns the target p6*-PR precursor p6*-PR (Human immunodeficiency virus 1) (UniProt O93215).

Turning to “HIV-1 protease mature PR (from UniProt O93215)”, in series [1], the Kd was less than 5 nM.
As for “p6*-PR precursor p6*-PR (from UniProt O93215)”, the dissociation constant (Kd) in series [2] was 700 nM.
